Laboratory results published in paper PMC7912905.

Assays:
[1] = target: phosphorylated form of RNAP II in both wt MEFs and HeLa cells; assay: FRET or BRET; FLIM-FRET on wt MEFs or HeLa cells transiently transfected with EGFP-SRSF2 (donor), fixed and immunostained for lamin A or RNA polymerase II pS5 (acceptor, secondary antibody Alexa Fluor 594); E ≥ 25% taken as interaction
[2] = target: β-catenin (mouse (endogenous in MEFs)) (UniProt Q02248); assay: FRET or BRET; FLIM-FRET on fixed, immunostained mitotic cells with normal A-type lamins (lmna wt MEFs); SC-35 donor (Cy3), β-catenin acceptor (Cy5); E ≥ 25% taken as interaction
[3] = target: phosphorylated form of RNA polymerase II (CTD repeat YSPTSPS, phospho S5), in mouse embryonic fibroblasts (mouse (endogenous in MEFs)) (UniProt P08775); assay: FRET or BRET; FLIM-FRET on fixed, immunostained interphase lmna wt cells (MEFs); SC-35 donor (secondary antibody Cy3), RNA polymerase II pS5 acceptor (secondary antibody Cy5); E ≥ 25% taken as interaction

Sequence of EGFP-tagged SRSF2 (Q01130 whole entry): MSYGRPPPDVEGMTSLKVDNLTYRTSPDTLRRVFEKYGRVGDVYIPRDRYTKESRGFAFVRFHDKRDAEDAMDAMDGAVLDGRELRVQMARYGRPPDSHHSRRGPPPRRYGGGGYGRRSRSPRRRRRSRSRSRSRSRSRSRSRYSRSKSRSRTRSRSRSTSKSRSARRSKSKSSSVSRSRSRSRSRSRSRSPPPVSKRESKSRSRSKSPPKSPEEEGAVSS
Sequence of β-catenin (mouse (endogenous in MEFs)) (Q02248 whole entry): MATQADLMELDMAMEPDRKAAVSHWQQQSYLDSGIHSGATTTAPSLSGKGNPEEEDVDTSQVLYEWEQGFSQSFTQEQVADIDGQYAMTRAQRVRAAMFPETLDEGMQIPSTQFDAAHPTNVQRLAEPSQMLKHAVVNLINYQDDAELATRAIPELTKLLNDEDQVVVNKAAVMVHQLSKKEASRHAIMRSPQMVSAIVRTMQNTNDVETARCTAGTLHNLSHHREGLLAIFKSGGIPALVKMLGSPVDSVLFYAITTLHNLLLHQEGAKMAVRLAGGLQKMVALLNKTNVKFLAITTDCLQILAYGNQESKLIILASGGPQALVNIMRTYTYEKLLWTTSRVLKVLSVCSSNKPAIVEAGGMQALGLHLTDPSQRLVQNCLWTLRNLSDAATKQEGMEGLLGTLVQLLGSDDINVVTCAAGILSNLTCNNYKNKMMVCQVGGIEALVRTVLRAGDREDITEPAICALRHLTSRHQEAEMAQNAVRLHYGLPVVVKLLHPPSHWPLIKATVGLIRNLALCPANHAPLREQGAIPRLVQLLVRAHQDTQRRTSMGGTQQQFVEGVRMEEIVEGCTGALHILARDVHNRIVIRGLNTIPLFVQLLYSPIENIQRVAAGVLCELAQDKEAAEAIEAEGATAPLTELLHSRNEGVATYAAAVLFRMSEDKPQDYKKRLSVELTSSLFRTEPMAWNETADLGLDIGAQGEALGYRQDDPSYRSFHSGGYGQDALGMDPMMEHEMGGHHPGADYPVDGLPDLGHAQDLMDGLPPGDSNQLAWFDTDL

FRET efficiency [1] | FRET efficiency [2] | FRET efficiency [3] | Substance
27 to 29% | – | – | EGFP-tagged SRSF2 (from UniProt Q01130 1-221) (natural protein)
– | 36.5% | 75% | SC-35 protein (serine/arginine-rich splicing factor 2, encoded by the SRSF2 gene) (from UniProt Q62093 1-221) (natural protein)
